This test has as its target T1, 重组人IL-2蛋白 (human, UniProt P60568 21-153).
T1 construct: also called 人白介素-2; 重组表达人IL-2
The test is described as follows: SPR, Biacore 3000; antibody at 333 nM, recombinant human IL-2 at 64, 32, 16, 8, 4 nM. In general terms: In SPR one partner is held on a chip, and binding of the other changes the refractive index at the surface.

Consider 2 molecules from patent CN111499746A (YUROGEN BIOSYSTEMS LLC, dated 2020).

T1 sequence (P60568 21-153 limits assumed): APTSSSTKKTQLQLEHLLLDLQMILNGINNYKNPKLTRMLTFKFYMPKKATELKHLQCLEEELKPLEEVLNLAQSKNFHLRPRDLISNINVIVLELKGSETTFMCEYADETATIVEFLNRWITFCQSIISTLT

B1: 抗人IL-2蛋白兔单克隆抗体B (antibody, V domains shown)
VH: QSLEESGGRLVTPGGSLTLTCTVSGIDLSTGGVSWVRQAPGKGLEWIGIISRHTNTYYASWAKGRFTISKTSSTTVDVKITSPTIEDTATYYCARVSSGDGLYAFDPWGPGTLVTVSS
VL: AIEMTQTPSPVSAAVGGTVTINCQASEDIETYLAWYQQKPGQPPRLLIYSGSTIASGVSSHFKGSGSGTEFTLTISDLECADAATYYCQCTSYASGYWNQAFGGGTEVVVRG
notes: Recombinant rabbit monoclonal antibody made in 293 cells and purified on protein A; in the Biacore assay it is unlabelled; also called 人IL-2兔单克隆抗体B
Take B1: the Kd – broadly, the free concentration of one partner at which half of the binding sites on the other are occupied at equilibrium, for simple one-to-one binding – amounted to 293 pM.

B2: 抗人IL-2蛋白兔单克隆抗体A (antibody, V domains shown)
VH: QSVAESGGRLVTPGTPLTLTCTASGFSLTTYAMSWVRQAPGKGLEWIAIIYIDGTTYYGSWAKGRFTISKTSTTVDLRIISPTTEDTATYFCAKWYVGEMDLWGPGTLVTVSS
VL: DIVMTQTPASVEAAVGGTVTINCQASQSVYRDNYLAWYQQKPGQRPKLLIYGTSTLASGVSSRFKGSGSGTQFTLTISDLECADAATYYCQSYVYSSTIDNAFGGGTEVVVKG
notes: Recombinant rabbit monoclonal antibody made in 293 cells and purified on protein A; also called 人IL-2兔单克隆抗体A
In the case of B2, the Kd came out at 899 pM.
